The target in assay [1] is T1, human ROR1 expressed on the cell surface (human, UniProt Q01973 30-937).
T1 construct: whole, on cells; On JeKo-1 and Mino cells and other cancer cell lines (endogenous) and on transfected CHO and MC38 cells; also called cell surface-expressed ROR1; CHO-human ROR1
Briefly: flow cytometry on Calu-6 cells (lung cancer), C2E3 IgG at 10 µg/mL, MFI of anti-ROR1 / MFI of 2nd Ab. The procedure:
(§1) For the cell lines, the binding to ROR1 was analyzed with FACS (FACSCalibur, BD Biosciences) by using the anti-ROR1 antibody of the present invention.
(§2) Specifically, after disassociating each cell line and washing in PBS, the number of cells was counted and set as 2 ×10^5 cells/200 µl PBS, and then the clone C2E3 among ROR1 monoclonal antibodies prepared in Example 3 was treated in 10 µg/mL, and it was reacted at 4° C. for 1 hour. After reaction, cells were washed in PBS, and then the FITC-labeled constant region (Fc)-specific antibody (Goat anti-human IgG FITC conjugate, Fc specific, Sigma, F9512, concentration: 2.0 mg/ml) was suspended in 2 µl/1 ×10^5 cells/200 µl PBS, and it was reacted at 4° C. for 1 hour. After reaction, cells were washed in PBS, it was analyzed using a FACSCalibur device. The negative control group was treated only with the FITC-labeled constant region (Fc)-specific antibody. To compare the expression degrees of ROR1 among the cancer cell lines, the value of the result for the peak shift in the experimental group treated with the ROR1 monoclonal antibody (C2E3) of the present invention was divided by the result for the peak shift in the control group (Mean Fluorescence Intensity Ratio MFI Ratio: MFI of anti-ROR1/MFI of 2nd Ab).
In general terms: In flow cytometry, cells or beads pass a laser one at a time.

In assay [2] the target is T1, human ROR1 expressed on the cell surface. Nature of the assay: flow cytometry on Mino cells (MCL), C2E3 IgG at 10 µg/mL, MFI of anti-ROR1 / MFI of 2nd Ab. The procedure:
as §1, §2

For assay [3] the target is unchanged. Nature of the assay: flow cytometry on HCC1143 cells (breast cancer), C2E3 IgG at 10 µg/mL, MFI of anti-ROR1 / MFI of 2nd Ab. The procedure: as §1, §2
Assay [4] shares this target. Briefly: flow cytometry on 697 cells (ALL), C2E3 IgG at 10 µg/mL, MFI of anti-ROR1 / MFI of 2nd Ab. The procedure: as §1, §2
Assay [5] shares this target. Nature of the assay: flow cytometry on A549 cells (lung cancer), C2E3 IgG at 10 µg/mL, MFI of anti-ROR1 / MFI of 2nd Ab. The procedure: as §1, §2
Assay [6] has as its target T2, mouse ROR1 expressed on the cell surface (CHO-mouse ROR1) (mouse, UniProt Q9Z139 30-937).
T2 construct: whole, on cells; Temporarily transfected CHO cells
Briefly: flow cytometry on CHO cells transiently overexpressing mouse ROR1, FITC anti-human Fc detection, MFI ratio to 2nd Ab. The procedure: For this experiment, the degree of binding of the anti-ROR1 antibody and ROR1 was measured by using FACSCalibur (BD Biosciences) device with the cell lines as follows, the cell lines artificially overexpressing the ROR1 protein by transfecting an ROR1 gene temporarily (CHO-human ROR1, CHO-human ROR2, CHO-mouse ROR1) or stably (MC38-human ROR1) (FIG. 5 and FIG. 7, respectively) or the cell lines expressing ROR1 (JeKo-1, Mino) (FIG. 6) or a cell line not expressing ROR1 (MCF7) (FIG. 6). […] JeKo-1, Mino, CHO-human ROR1, CHO-mouse ROR1 and MC38-human ROR1 are all cell lines expressing human ROR1 or mouse ROR1.
Specifically, after disassociating each cell line and washing in PBS, the number of cells was counted and set as 2×10^5 cells/200 µl PBS, and then each ROR1 monoclonal antibody in Example 3 was prepared in 10 µg/mL or as 5 fold-diluted from 10 µg/mL, and was reacted at 4° C. for 1 hour. After reaction, cells were washed in PBS and then the FITC-labeled constant region (Fc)-specific antibody (Goat anti-human IgG FITC conjugate, Fc specific, Sigma, F9512, concentration: 2.0 mg/ml) was suspended in 2 µl/1×10^5 cells/200 µl PBS, and it was reacted at 4° C. for 1 hours. The confirmation of expression degree of human ROR1, human ROR2 and mouse ROR1 that were temporarily overexpressed was analyzed by using a commercially available antibody for FACS analysis (anti-ROR1: R&D Systems, FAB2000G, anti-ROR2: R&D, FAB20641P). After reaction, cells were washed in PBS and decoded by using a FACSCalibur device. The negative control group (2nd Ab) was treated only with the FITC-labeled constant region (Fc)-specific antibody. The result for the peak shift in the experimental group treated with each ROR1 monoclonal antibody was compared to the result for the shift in the control group (Mean Fluorescence Intensity Ratio, MFI Ratio: MFI of anti-ROR1/MFI of 2nd Ab).

T1 sequence (Q01973 30-937): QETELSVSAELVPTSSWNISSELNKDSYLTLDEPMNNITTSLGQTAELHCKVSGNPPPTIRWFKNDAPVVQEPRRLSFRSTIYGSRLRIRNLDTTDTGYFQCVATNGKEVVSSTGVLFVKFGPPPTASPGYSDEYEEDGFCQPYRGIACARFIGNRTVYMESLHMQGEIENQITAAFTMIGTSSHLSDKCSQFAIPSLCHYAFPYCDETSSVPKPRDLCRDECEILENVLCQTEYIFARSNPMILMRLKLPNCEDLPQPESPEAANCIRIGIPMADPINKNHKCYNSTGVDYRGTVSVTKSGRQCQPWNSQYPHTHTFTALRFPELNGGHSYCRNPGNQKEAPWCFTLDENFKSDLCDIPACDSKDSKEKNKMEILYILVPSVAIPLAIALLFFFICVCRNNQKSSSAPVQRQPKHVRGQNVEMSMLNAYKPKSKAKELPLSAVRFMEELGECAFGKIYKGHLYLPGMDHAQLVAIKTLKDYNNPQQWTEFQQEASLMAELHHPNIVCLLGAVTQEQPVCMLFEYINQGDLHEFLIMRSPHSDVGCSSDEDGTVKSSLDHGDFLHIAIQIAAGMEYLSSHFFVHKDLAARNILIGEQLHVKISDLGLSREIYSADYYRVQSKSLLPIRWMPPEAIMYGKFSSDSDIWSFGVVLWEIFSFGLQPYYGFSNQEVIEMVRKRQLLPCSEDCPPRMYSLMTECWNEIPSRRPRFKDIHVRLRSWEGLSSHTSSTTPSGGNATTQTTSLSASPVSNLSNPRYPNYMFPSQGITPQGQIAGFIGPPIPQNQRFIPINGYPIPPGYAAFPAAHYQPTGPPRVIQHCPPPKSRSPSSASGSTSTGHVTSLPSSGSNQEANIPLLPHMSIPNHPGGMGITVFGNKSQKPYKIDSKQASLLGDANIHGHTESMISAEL
T2 sequence (Q9Z139 30-937): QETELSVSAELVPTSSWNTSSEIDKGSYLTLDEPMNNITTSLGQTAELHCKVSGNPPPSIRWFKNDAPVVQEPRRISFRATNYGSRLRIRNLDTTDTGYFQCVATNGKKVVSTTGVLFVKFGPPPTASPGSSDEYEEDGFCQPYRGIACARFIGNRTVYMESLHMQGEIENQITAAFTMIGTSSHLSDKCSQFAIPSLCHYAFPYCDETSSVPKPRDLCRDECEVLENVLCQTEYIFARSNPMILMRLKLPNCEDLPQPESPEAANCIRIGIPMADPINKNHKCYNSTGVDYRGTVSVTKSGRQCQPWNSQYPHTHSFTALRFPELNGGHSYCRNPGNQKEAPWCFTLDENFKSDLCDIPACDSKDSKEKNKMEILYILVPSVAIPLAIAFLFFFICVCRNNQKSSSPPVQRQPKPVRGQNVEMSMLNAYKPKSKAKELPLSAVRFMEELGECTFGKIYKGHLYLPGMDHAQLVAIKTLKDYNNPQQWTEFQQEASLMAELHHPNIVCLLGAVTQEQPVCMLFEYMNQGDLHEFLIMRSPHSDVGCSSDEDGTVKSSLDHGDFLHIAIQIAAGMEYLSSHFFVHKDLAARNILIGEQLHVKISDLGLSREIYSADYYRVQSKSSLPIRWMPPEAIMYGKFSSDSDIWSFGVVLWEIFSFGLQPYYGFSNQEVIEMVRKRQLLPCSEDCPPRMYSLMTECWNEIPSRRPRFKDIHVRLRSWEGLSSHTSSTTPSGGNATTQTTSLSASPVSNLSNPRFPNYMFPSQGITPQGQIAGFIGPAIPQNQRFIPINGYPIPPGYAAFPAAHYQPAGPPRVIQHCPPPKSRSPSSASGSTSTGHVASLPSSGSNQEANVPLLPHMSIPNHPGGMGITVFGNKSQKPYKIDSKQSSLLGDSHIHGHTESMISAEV

B1: C2E3 anti-ROR1 IgG antibody (antibody, V domains shown)
VH: EVQLLESGGGLVQPGGSLRLSCAASGFTFSNYAMSWVRQAPGKGLEWVSSISHNSGSTYYADSVKGRFTISRDNSKNTLYLQMNSLRAEDTAVYYCAKFISARKSLGRSYSNGMDVWGQGTLVTVSS
VL: QSVLTQPPSASGTPGQRVTISCTGSSSNIGSNDVTWYQQLPGTAPKLLIYADSKRPSGVPDRFSGSKSGTSASLAISGLRSEDEADYYCGTWDYSLSGYVFGGGTKLTVLG
On to B1, for which the “Mean Fold Ratio” value came out at 3.3 in assay [1]; 7.2 in assay [2]; 3.2 in assay [3]; 12 in assay [4]; 6 in assay [5]. Also, in assay [6], the binding result was “binds”.
